In article PMC7769916 (Cellular and molecular life sciences : CMLS, 2020):

What was measured:
[1] = biological target: Plexin-B1 ICD R1900E.R1904E (human) (UniProt O43157)
[2] = biological target: Plexin-B1 ICD E1530R.E1533R (human) (UniProt O43157)
[3] = biological target: Plexin-B1 ICD E1530R.E1533R (human, UniProt O43157 1511-2135, E1530R | E1533R); test: MST
[4] = biological target: Plexin-B1 ICD FL [res. 1511-2135] (human, UniProt O43157 1511-2135); test: MST
[5] = biological target: Plexin-B1 ICD R1900E.R1904E (human, UniProt O43157 1511-2135, R1900E | R1904E); test: MST
Plexin-B1 ICD R1900E.R1904E, sequence (O43157 1511-2135 R1900E/R1904E): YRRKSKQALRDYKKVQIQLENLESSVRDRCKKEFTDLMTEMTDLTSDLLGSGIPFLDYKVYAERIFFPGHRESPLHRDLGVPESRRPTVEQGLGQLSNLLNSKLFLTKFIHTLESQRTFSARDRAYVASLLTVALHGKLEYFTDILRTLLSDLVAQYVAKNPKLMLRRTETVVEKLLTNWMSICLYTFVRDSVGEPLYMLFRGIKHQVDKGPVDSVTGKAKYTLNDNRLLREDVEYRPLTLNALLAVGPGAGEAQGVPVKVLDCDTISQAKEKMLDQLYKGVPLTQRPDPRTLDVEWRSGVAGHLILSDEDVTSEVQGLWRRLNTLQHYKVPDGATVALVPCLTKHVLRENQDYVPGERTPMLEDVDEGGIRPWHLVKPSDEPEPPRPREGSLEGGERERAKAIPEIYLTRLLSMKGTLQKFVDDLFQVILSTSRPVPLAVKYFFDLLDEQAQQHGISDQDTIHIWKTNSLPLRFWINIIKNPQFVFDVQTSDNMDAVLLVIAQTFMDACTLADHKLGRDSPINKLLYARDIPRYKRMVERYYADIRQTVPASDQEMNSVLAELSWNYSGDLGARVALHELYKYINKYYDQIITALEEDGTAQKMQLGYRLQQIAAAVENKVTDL

Human Rap1b wild type [res. 1 to 184], sequence (P61224 whole entry): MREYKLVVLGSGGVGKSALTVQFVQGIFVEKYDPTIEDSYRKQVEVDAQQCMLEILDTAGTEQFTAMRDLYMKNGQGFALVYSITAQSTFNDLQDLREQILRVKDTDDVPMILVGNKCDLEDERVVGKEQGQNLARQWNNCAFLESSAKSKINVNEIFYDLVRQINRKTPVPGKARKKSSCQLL
Plexin-B1 ICD FL [res. 1511-2135], sequence (O43157 1511-2135): as the sequence (O43157 1511-2135 R1900E/R1904E) above, with E390R, E394R counted along it
Plexin-B1 ICD R1900E.R1904E (human), sequence (O43157 1511-2135 R1900E/R1904E): as the sequence (O43157 1511-2135 R1900E/R1904E) above
Plexin-B1 ICD E1530R.E1533R (human), sequence (O43157 1511-2135 E1530R/E1533R): as the sequence (O43157 1511-2135 R1900E/R1904E) above, with E20R, E23R, E390R, E394R counted along it
Plexin-B1 ICD E1530R.E1533R, sequence (O43157 1511-2135 E1530R/E1533R): as the sequence (O43157 1511-2135 R1900E/R1904E) above, with E20R, E23R, E390R, E394R counted along it

| loss of GAP activity towards Rap1b against wild type Plexin-B1 ICR [1] | loss of GAP activity towards Rap1b against wild type Plexin-B1 ICR [2] | Kd [3] | binding result [4] | Kd [5] | Molecule |
| --- | --- | --- | --- | --- | --- |
| > 50% | > 50% |  |  |  | Human Rap1b wild type [res. 1 to 184] (from UniProt P61224 1-184) (enzyme) |
|  |  | > 100 µM | binds | > 100 µM | Rap1b G12V (constitutive active mutant) [res. 1 to 184] (enzyme, human, UniProt P61224 1-184, looked up) MREYKLVVLGSVGVGKSALTVQFVQGIFVEKYDPTIEDSYRKQVEVDAQQCMLEILDTAGTEQFTAMRDLYMKNGQGFALVYSITAQSTFNDLQDLREQILRVKDTDDVPMILVGNKCDLEDERVVGKEQGQNLARQWNNCAFLESSAKSKINVNEIFYDLVRQINRKTPVPGKARKKSSCQLL |
